B1: Cell adhesion molecule CEACAM1 (Homo sapiens), P13688 (parent)
chain: MGHLSAPLHRVRVPWQGLLLTASLLTFWNPPTTAQLTTESMPFNVAEGKEVLLLVHNLPQQLFGYSWYKGERVDGNRQIVGYAIGTQQATPGPANSGRETIYPNASLLIQNVTQNDTGFYTLQVIKSDLVNEEATGQFHVYPELPKPSISSNNSNPVEDKDAVAFTCEPETQDTTYLWWINNQSLPVSPRLQLSNGNRTLTLLSVTRNDTGPYECEIQNPVSANRSDPVTLNVTYGPDTPTISPSDTYYRPGANLSLSCYAASNPPAQYSWLINGTFQQSTQELFIPNITVNNSGSYTCHANNSVTGCNRTTVKTIIVTELSPVVAKPQIKASKTTVTGDKDSVNLTCSTNDTGISIRWFFKNQSLPSSERMKLSQGNTTLSINPVKREDAGTYWCEVFNPISKNQSDPIMLNVNYNALPQENGLSPGAIAGIVIGVVALVALIAVALACFLHFGKTGRASDQRDLTEHKPSVSNHTQDHSNDPPNKMNEVTYSTLNFEAQQPTQPTSASPSLTATEIIYSEVKKQ

Variants of: B1
Conditions: with havr2_human HAVCR2, Q8TDQ0

| effect of a mutation on the interaction | Variant |
| --- | --- |
| decreasing interaction strength | Q123H |
| disrupting interaction strength | G81A |
| decreasing interaction strength | N76A |
| decreasing interaction strength | Q78L |
